Target: TOPBP1 (UniProt Q92547)
Assay: co-IP of FLAG-HTATSF1 with endogenous TOPBP1
Settings: reference: wild type; sites S748

HIV Tat-specific factor 1 (HTATSF1) (from UniProt O43719) S748A
binding against the reference: lost
